Test results reported in PMC10933417.

T1: ZNF827 ZnFΔ1-3 (Homo sapiens, UniProt Q17R98 1-373+456-1081, internal_change)
T1 sequence: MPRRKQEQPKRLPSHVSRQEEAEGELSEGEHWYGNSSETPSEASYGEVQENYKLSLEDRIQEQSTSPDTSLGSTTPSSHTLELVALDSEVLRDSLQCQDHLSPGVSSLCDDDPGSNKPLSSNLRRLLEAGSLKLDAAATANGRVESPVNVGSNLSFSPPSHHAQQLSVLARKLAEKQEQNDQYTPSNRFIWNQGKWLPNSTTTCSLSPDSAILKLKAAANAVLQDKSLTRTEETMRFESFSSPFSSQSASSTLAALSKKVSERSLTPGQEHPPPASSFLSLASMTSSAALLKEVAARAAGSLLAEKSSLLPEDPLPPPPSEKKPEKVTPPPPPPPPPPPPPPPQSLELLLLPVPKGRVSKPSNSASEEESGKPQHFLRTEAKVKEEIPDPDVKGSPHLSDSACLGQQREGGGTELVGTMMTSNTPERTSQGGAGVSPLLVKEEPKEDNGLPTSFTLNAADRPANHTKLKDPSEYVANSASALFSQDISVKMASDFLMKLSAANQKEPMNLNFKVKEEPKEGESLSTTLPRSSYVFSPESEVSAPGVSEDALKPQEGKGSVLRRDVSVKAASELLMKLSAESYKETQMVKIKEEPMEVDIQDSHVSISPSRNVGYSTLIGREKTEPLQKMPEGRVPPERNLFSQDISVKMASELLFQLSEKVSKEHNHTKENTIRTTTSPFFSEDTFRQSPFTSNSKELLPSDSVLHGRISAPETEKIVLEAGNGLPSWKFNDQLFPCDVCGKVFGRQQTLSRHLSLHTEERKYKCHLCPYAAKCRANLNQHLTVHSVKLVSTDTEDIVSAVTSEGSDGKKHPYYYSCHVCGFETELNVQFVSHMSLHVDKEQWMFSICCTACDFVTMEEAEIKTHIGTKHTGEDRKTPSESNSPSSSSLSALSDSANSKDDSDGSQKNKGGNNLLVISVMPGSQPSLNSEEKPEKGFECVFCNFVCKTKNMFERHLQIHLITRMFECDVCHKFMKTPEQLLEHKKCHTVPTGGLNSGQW

T2: ZNF827 wild-type (Homo sapiens, UniProt Q17R98 1-1081)
T2 sequence: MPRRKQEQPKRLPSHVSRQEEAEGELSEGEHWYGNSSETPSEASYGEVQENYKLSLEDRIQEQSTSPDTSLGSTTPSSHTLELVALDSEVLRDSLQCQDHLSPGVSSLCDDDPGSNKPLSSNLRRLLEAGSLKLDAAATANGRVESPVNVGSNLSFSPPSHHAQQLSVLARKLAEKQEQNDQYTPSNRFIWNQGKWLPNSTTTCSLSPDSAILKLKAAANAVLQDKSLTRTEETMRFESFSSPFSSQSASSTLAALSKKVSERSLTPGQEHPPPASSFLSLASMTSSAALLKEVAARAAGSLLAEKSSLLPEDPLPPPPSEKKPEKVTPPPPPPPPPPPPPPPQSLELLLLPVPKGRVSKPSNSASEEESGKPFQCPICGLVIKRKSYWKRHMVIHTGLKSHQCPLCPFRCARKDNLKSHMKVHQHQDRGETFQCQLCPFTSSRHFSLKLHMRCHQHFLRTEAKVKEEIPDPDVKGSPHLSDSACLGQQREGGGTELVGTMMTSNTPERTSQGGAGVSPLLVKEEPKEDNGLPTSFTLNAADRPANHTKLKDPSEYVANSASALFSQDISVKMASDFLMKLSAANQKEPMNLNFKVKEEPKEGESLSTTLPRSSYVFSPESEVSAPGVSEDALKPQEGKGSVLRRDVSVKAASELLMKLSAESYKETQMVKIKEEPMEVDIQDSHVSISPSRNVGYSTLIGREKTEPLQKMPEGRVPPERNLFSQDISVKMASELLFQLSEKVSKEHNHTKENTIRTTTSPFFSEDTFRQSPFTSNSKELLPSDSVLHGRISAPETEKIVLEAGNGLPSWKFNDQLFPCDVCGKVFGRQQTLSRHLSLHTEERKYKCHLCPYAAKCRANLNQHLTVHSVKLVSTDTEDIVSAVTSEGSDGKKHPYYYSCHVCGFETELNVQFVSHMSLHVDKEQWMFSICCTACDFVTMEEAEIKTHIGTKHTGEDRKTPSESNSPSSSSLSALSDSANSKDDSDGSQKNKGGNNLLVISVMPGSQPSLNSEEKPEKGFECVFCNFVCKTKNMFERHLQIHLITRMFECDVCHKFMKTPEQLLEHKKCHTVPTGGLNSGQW

T3: ZNF827 ZnFΔ4-9 (Homo sapiens, UniProt Q17R98 1-816+1070-1081, internal_change)
T3 sequence: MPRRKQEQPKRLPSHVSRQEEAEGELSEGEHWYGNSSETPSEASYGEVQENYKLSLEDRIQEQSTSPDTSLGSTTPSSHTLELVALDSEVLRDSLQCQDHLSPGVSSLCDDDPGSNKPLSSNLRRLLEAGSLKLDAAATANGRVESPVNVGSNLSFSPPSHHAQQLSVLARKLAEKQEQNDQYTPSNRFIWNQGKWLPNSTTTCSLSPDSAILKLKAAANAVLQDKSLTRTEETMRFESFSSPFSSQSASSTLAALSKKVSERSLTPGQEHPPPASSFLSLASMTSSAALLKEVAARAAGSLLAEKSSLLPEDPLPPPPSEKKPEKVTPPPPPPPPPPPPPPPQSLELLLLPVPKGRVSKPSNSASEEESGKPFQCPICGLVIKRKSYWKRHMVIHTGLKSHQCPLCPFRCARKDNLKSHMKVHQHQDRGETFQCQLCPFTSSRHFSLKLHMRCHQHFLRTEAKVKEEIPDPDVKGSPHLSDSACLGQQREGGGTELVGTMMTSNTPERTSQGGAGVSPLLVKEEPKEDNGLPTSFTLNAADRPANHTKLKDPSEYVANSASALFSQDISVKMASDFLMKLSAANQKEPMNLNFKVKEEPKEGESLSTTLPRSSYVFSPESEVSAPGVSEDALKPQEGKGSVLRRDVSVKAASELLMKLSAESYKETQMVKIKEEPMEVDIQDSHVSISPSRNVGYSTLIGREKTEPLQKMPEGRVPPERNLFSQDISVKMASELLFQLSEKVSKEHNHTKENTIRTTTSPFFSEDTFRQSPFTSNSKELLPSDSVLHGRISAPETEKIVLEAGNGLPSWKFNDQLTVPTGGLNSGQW

B1: ssDNA pentaprobe (ssDNA)
DNA: CGCTCTATTCTACTGTCCTGTGCATTCAATCGTTGAGTTCGATCTAGTCTCGTCTAACCCTCCCCTGCTCCGCTGGTCTGGCCTCGCCTATCCTACCCAT
B2: dsDNA pentaprobe (dsDNA)
DNA 1: B1 DNA
DNA 2: ATGGGTAGGATAGGCGAGGCCAGACCAGCGGAGCAGGGGAGGGTTAGACGAGACTAGATCGAACTCAACGATTGAATGCACAGGACAGTAGAATAGAGCG

What was measured:
[1] = target: ZNF827 wild-type;RPA heterotrimer (Homo sapiens;Homo sapiens?, UniProt Q17R98;P27694;P15927;P35244 1-1081;1-616;1-270;1-121, |); assay: EMSA; 0.8 mM ZnCl2; intermediate band only with both proteins; RPA partly displaces ZNF827; 20 mM HEPES-KOH pH 7.9, 100 mM KCl, 0.8 mM ZnCl2, 0.2 mM EDTA, 5% glycerol, 0.5 mM DTT, 0.5 mM PMSF, 6.25 ug/mL poly(dI:dC), 50 ng/uL BSA, ~0.5 nM probe, on ice; gel at 4 °C; settings: protein: recombinant;recombinant; tags: HaloTag removed by TEV cleavage;; copies: 1;1;1;1; label: 32P (T4 PNK end label)
ZNF827 wild-type;RPA heterotrimer, sequence (P27694 whole entry, chain 2 of 3): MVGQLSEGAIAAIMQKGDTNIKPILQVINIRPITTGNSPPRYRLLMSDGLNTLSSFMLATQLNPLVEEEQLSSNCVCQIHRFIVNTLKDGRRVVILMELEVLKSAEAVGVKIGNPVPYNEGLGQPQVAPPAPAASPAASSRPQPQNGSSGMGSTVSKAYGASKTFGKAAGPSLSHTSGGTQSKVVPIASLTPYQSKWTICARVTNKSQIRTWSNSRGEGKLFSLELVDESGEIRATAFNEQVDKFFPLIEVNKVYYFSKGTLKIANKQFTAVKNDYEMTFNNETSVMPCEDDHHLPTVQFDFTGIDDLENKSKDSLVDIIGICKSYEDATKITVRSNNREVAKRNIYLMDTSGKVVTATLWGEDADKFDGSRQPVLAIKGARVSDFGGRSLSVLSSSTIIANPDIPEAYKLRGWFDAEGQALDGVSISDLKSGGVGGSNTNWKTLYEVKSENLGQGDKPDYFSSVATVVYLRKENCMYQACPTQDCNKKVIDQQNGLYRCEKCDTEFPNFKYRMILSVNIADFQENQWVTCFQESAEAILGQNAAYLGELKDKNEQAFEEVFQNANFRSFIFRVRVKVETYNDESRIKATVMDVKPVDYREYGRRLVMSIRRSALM
ZNF827 wild-type;RPA heterotrimer, sequence (P15927 whole entry, chain 3 of 3): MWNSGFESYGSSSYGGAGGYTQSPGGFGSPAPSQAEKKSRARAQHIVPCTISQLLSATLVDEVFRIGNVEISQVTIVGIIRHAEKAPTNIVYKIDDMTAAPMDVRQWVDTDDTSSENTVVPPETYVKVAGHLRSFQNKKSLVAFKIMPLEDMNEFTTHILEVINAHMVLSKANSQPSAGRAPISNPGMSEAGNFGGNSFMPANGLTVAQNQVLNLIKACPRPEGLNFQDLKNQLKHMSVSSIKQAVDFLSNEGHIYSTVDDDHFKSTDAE
ZNF827 wild-type;RPA heterotrimer, sequence (P35244 whole entry, chain 4 of 3): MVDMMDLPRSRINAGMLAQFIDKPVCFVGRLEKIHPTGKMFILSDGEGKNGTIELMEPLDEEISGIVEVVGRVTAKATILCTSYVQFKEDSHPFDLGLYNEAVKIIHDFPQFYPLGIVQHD

RPA heterotrimer = RPA heterotrimer (UniProt P27694;P15927;P35244 1-616;1-270;1-121); assay: EMSA; 0.8 mM ZnCl2; 20 mM HEPES-KOH pH 7.9, 100 mM KCl, 0.8 mM ZnCl2, 0.2 mM EDTA, 5% glycerol, 0.5 mM DTT, 0.5 mM PMSF, 6.25 ug/mL poly(dI:dC), 50 ng/uL BSA, ~0.5 nM probe, on ice; gel at 4 °C; settings: protein: recombinant; copies: 1;1;1; label: 32P (T4 PNK end label)
RPA heterotrimer, sequence (P27694 whole entry, chain 1 of 3): as the sequence (P27694 whole entry, chain 2 of 3) above
RPA heterotrimer, sequence (P15927 whole entry, chain 2 of 3): as the sequence (P15927 whole entry, chain 3 of 3) above
RPA heterotrimer, sequence (P35244 whole entry, chain 3 of 3): as the sequence (P35244 whole entry, chain 4 of 3) above

ZNF827 ZnFΔ1-3 = target: T1, ZNF827 ZnFΔ1-3; assay: as above; settings: protein: recombinant, tags: HaloTag removed by TEV cleavage, label: 32P (T4 PNK end label)
ZNF827 wild-type = target: T2, ZNF827 wild-type; assay: as above; settings: protein: recombinant, tags: HaloTag removed by TEV cleavage, label: 32P (T4 PNK end label)
ZNF827 ZnFΔ4-9 = target: T3, ZNF827 ZnFΔ4-9; assay: as above; settings: protein: recombinant; tags: HaloTag removed by TEV cleavage; label: 32P (T4 PNK end label); blunt

Binder | binding result [1] | binding result (RPA heterotrimer) | binding result (ZNF827 ZnFΔ1-3) | binding result (ZNF827 wild-type) | binding result (ZNF827 ZnFΔ4-9) | binding result (ZNF827 ZnFΔ1-3; blunt) | binding result (ZNF827 wild-type; blunt)
B1 | binds | binds | no binding | binds |  |  | 
B2 |  |  |  |  | no binding | no binding | no binding
